Key:
FEN1 WT (Homo sapiens) [1] = experiment: smFRET; details: smFRET reaction buffer with CaCl2 (binding) or MgCl2 (cleavage), SPR in same buffer with CaCl2, no oxygen scavenger, salt, pH and temperature not given in the …; for Kd: Ca2+, Kd-bending
FEN1 WT (Homo sapiens) [2] = experiment: smFRET dwell-time kinetics; details: smFRET reaction buffer with CaCl2 (binding) or MgCl2 (cleavage); SPR in same buffer with CaCl2, no oxygen scavenger; salt, pH and temperature not given in the …

Substance	Kd (FEN1 WT (Homo sapiens) [2])	Kd (FEN1 WT (Homo sapiens) [1])	also measured
DF-7,1mismatch(1nt)			binding signal (fold Kd-bending increase vs DF-6,1) (FEN1 WT (Homo sapiens) [1]): 7
EQ DF-6,1Flap	3.2 nM		
SF-6,0Flap	166 nM		
NonEQ DF-6,1dsDNA		4.6 nM	
NonEQ DF-6,1Flap		3.9 nM	

Source: article PMC5358979
